Experimental data: publication PMC6687101

Target: HBV envelope proteins (HBs; L, M and S forms) on HBV virions and subviral particles (hepatitis B virus) (UniProt P03138)
Experiment: co-IP; 50 µg apoE mAb23 or anti-HBs coupled to protein G agarose, mixed with 10 µL CsCl-purified HBV (fraction 7) at 4 °C overnight; HBcAg detected by WB and HBV DNA by qPCR (input = 100%); normal mouse IgG as control

HBV core protein (from UniProt P03146 1-183) (natural protein)
percent of HBV precipitated through HBs (HBV DNA by qPCR): > 95%
